Biological target: ubiquitin (UniProt P0CG48 1-76)
Assay: NMR intermolecular NOESY

B1: S5a (196–306) (domain or fragment, UniProt P55036 196-306, looked up)
chain: MLGLGASDFEFGVDPSADPELALALRVSMEEQRQRQEEEARRAAAASAAEAGIATTGTEDSDDALLKMTISQQEFGRTGLPDLSSMTEEEQIAYAMQMSLQGAEFGQAESA
  binding result: binds

Reference: publication PMC6392013 (Methods in molecular biology (Clifton, N.J.), 2012)
